Assay results published in patent US9428586B2, “Heparanase splice variant” (COMPUGEN LTD, priority 2010, dated 2016).
One block for each molecule: values may come before it.

Tests used:
Src [1] = assay: Src phosphorylation (immunoblot, densitometry) in CAG myeloma cells; format: cell-based, human; conditions: serum-free
Experimental: (§1) FIG. 3. T5 augments Src phosphorylation. A. Over expression. CAG myeloma (left) and 293 (right) cells infected with heparanase (Hepa), T5, or control empty vector (Vo) were grown in the absence (−) or presence (+) of heparin (50 μg/ml) under serum-free conditions. Total cell lysates were subjected to immunoblotting applying anti-heparanase 1453 (upper and second panels), anti-phospho-Src (p-Src, third panels), anti-Src (fourth panels) anti-phospho-Erk (p-Erk, fifth panels), and anti-Erk2 (sixth panels) antibodies. Src phosphorylation index was calculated by densitometry analysis of phosphorylated Src levels divided by the total Src values. Data is presented as average fold increase ±SE of Src phosphorylation compared with control, Vo cells, set arbitrary to a value of 1 (lower panels) of five independent experiments. B. Gene silencing. Parental 293 cells were transfected with anti-heparanase, anti-T5, or control siRNAs. Total RNA was extracted and RT-PCR analysis was performed applying T5 (upper panel), heparanase (Hepa, second panel) and GAPDH (third panel) specific primers. Corresponding cell lysates were subjected to immunoblotting applying phospho-Src (p-Src, fourth panel), Src (fifth panel), phospho-Erk (p-Erk, sixth panel) and Erk2 (seventh panel) antibodies. Src phosphorylation index was calculated as above and is shown graphically in the lower panel. Note decreased Src phosphorylation levels upon T5 down regulation.
(§2) Preparation of cell lysates, protein blotting, and measurement of heparanase enzymatic activity were carried out as described previously (Zetser, A., et al., 2006, Cancer Res 66, 1455-1463; Fux, L., et al., 2009, Cancer Res 69, 1758-1767).

293 cells = assay: T5 and heparanase levels in cell conditioned medium with heparin (immunoblot); format: cell-based, human; conditions: heparin 50 μg/ml, 20 h, serum-free
From the text: (§3) FIG. 7. […] A. Cell lysates. […] B,C. Peptide analysis. […] C. Enzymatic activity.

heparanase = biological target: T1, heparanase (Homo sapiens, UniProt Q9Y251); assay: Inhibition of purified active heparanase by peptides (35S-labeled ECM degradation); format: biochemical; conditions: peptide 50 μg/ml; purified active heparanase 40 ng
T1 construct: the 8 kDa portion and the 50 kDa portion form a heterodimer, which is enzymatically active
T1 sequence (Q9Y251 36-109 limits assumed): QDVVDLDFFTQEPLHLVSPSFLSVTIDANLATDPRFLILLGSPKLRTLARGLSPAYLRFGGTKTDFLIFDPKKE
T1 sequence (Q9Y251 158-543 limits assumed): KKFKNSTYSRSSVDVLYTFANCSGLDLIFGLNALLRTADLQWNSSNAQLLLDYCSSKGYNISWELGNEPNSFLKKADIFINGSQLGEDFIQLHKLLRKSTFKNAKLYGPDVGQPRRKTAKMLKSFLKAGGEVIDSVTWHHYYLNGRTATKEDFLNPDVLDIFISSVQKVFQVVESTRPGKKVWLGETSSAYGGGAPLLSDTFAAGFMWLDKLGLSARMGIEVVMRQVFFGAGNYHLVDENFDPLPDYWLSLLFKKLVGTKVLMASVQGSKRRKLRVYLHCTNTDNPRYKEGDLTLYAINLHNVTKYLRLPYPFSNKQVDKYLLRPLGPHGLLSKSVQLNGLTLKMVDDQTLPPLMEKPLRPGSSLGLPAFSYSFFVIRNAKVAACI
Experimental: as §3, §2

Binding to heparin beads = conditions: gel electrophoresis prior to or following incubation with heparin beads
From the text: as §3

T5 = T5 protein bands in T5-transfected 293 cells treated with tunicamycin or chloroquine (immunoblot); format: cell-based, human; conditions: tunicamycin 10, 20 μg/ml
From the text: FIG. 2. Cloning and expression of T5. A. RT-PCR analysis. Total RNA was extracted from the indicated cell line and subjected to RT-PCR analysis applying T5 (upper panel), heparanase (second panel) and GAPDH (third panel) specific primers, specified in the ‘Materials and Methods’ section. B. T5 transfection. […] Control cells were transfected with an empty vector (Vo). Cell lysates (left) and cell conditioned medium (right) were blotted with anti-heparanase 1453 antibody. C. Cellular localization. Stably transfected 293 cells were triple stained for Myc-tag (T5; middle, red), the ER marker calnexin (ER, left, green), and merged with cell nuclei labeled with TO-PRO (right, blue). Cells were similarly stained with anti-Myc-tag (T5; middle, red), the Golgi marker wheat germ agglutinin-FITC (Golgi, left, green) and merged with cell nuclei labeled with TO-PRO (right, blue). […] D. Enzymatic activity. 293 cells transfected with heparanase (Hepa), T5 or control empty vector (Vo) were subjected to three freeze-thaw cycles and applied onto culture dishes coated with ^35S-labelled ECM. Release of sulfate-labeled material eluted in fractions 15-30 was evaluated as measure of heparanase activity, as described in ‘Materials and Methods’. […]

Src [2] = assay: Src phosphorylation (immunoblot, densitometry) in 293 cells; format: cell-based, human; conditions: over expressing 293 cells, serum-free
Experimental: as §1, with “(-)” for “(−)”, “Data is presented as average fold increase ±SE of Src phosphorylation compared with control, Vo cells, set arbitrary to a value of 1 (lower panels) of five independent experiments.” left out, “regulation. […]” for “regulation.”

Erk = Erk phosphorylation (immunoblot) in CAG myeloma and 293 cells; format: cell-based, human
Experimental: as §1, with “Note decreased Src phosphorylation levels upon T5 down regulation.” left out

CAG myeloma cells [3] = assay: Cell proliferation by BrdU incorporation, CAG myeloma cells; format: cell-based, human; conditions: infected CAG cells, serum-free 20 h, BrdU 2 h; control Vo 24±3%
Experimental: (§4) FIG. 4. T5 augments cell proliferation. A. BrdU incorporation. Morphology of control (Con), heparanase (Hepa)- and T5-infected CAG myeloma cell cultures is shown in the upper panels. […] Sub-confluent cultures of control (Vo), heparanase (Hepa)- and T5-infected CAG cells were grown in serum-free medium for 20 h followed by incubation with BrdU (1:1000) for 2 h. Cells were then fixed and immunostained with anti BrdU monoclonal antibody. Positively stained, red-brown nuclei were counted vs. blue, hematoxilin counter-stained nuclei. At least 1000 cells were counted for each cell type and the percentage of positively stained cells is noted in each panel. Fold increase in BrdU incorporation is shown graphically on the right panel. Gene silencing. 293 cells were transfected with anti-GFP (si-GFP), anti-heparanase (si-Hepa) or anti-T5 siRNA oligonucleotides and BrdU incorporation was evaluated as above except that cells were kept in serum-containing medium (lower panels). Note 2-fold decrease in BrdU incorporation following heparanase or T5 gene silencing (lower right panel). B. Colony formation in soft agar. […]
Cell proliferation was analyzed by BrdU incorporation using cell proliferation labeling reagent (1:1000, GE Healthcare), as described in Zetser, A., et al (2003 Cancer Res 63, 7733-7741). At least 1000 cells were counted for each cell type.

[4] = tested on: CAG myeloma, FaDu pharynx carcinoma and 293 cells; assay: Colony formation in soft agar; format: cell-based, human; conditions: over expression in CAG myeloma, FaDu and 293 cells
Experimental: as §4
Three ml of DMEM containing 0.5% low melt agarose (Bio-Rad, Hercules, Calif.) and 10% fetal calf serum was poured into 60 mm petri dishes. […] Colonies were visualized and counted under a microscope after 2-5 weeks, as described.

CAG myeloma cells [5] = assay: CAG myeloma tumor xenograft development and immunohistochemistry; format: in vivo, athymic nude mice
Experimental: FIG. 5. T5 enhances tumor xenograft development. Control (Vo), heparanase-, and T5-infected CAG myeloma cells were injected subcutaneously (1×10^6/0.1 ml) and tumor volume was calculated (A). At the end of the experiment on day 37, tumors were resected, photographed (A, inset) and weighted (B). C. Immunohistochemical analysis. Paraffin-embedded 5 micron sections were stained with hematoxilin & eosin (left column), anti-CD31 (second left column), and anti-smooth muscle actin (SMA, two right columns) antibodies. Note increased blood vessels density and maturation (recruitment of SMA-positive cells) in xenografts produced by heparanase- and T5-infected cells. Cells from exponential cultures of control-, heparanase-, and T5-infected CAG myeloma cells were detached with trypsin/EDTA, washed with PBS and brought to a concentration of 1×10^7 cells/ml. Cell suspension (1×10 6/0.1 ml) was inoculated subcutaneously at the right flank of 5-weeks old female athymic nude mice (n=7). Xenograft size was determined twice a week by externally measuring tumors in two dimensions using a caliper. At the end of the experiment, mice were sacrificed and xenografts were removed, weighted and fixed in formalin. Paraffin-embedded 5 micron sections were subjected to immunostaining with anti-PECAM-1 (CD31) or anti-smooth muscle actin (1A4, Sigma) antibodies, using the Envision kit, according to the manufacturer's (Dako, Glostrup, Denmark) instructions, as described (Fux, L., et al., 2009, Cancer Res 69, 1758-1767). All animal experiments were approved by the Animal Care Committee of the Technion, Haifa, Israel.

[6] = CAG xenografts, immunohistochemistry

Molecule: heparin
effect of heparin on Src phosphorylation enhanced by heparanase or T5 (Src [1]; heparin 50 μg/ml, CAG myeloma and 293 cells): not affected
T5 levels in the cell culture medium upon addition of heparin (293 cells): not affected
heparanase levels in the cell culture medium upon addition of heparin (293 cells): markedly increased

interaction of peptide with heparin (Binding to heparin beads): failed to interact with heparin
Molecule: CKKFKNSTYSSKK [CKKK]
inhibition of heparanase enzymatic activity (heparanase): failed to interact with heparin or to inhibit heparanase enzymatic activity

Molecule: tunicamycin
amount of the ˜17 kDa T5 band (T5): markedly reduced

B1: heparanase: full length wild type human heparanase, endo-β-D-glucuronidase (protein)
chain: QDVVDLDFFTQEPLHLVSPSFLSVTIDANLATDPRFLILLGSPKLRTLARGLSPAYLRFGGTKTDFLIFDPKKESTFEERSYWQSQVNQDICKYGSIPPDVEEKLRLEWPYQEQLLLREHYQKKFKNSTYSRSSVDVLYTFANCSGLDLIFGLNALLRTADLQWNSSNAQLLLDYCSSKGYNISWELGNEPNSFLKKADIFINGSQLGEDFIQLHKLLRKSTFKNAKLYGPDVGQPRRKTAKMLKSFLKAGGEVIDSVTWHHYYLNGRTATKEDFLNPDVLDIFISSVQKVFQVVESTRPGKKVWLGETSSAYGGGAPLLSDTFAAGFMWLDKLGLSARMGIEVVMRQVFFGAGNYHLVDENFDPLPDYWLSLLFKKLVGTKVLMASVQGSKRRKLRVYLHCTNTDNPRYKEGDLTLYAINLHNVTKYLRLPYPFSNKQVDKYLLRPLGPHGLLSKSVQLNGLTLKMVDDQTLPPLMEKPLRPGSSLGLPAFSYSFFVIRNAKVAACI
Src phosphorylation increase vs control Vo cells (Src [1]; infected CAG myeloma cells): ~3 fold
Src phosphorylation enhancement vs control Vo cells (Src [2]): ~4 fold
Erk phosphorylation upon over expression (Erk): not affected
BrdU incorporation (positively stained cells) (CAG myeloma cells [3]): 49±6%
colony number, size and cell density in soft agar [4]: markedly increased
micro vessel density (CD31) (CAG myeloma cells [5]; [6]): two-fold increase in vessel density
pericytes associated with blood vessels (smooth muscle actin) (CAG myeloma cells [5]; [6]): significantly increased number of pericytes
average weight of xenografts (CAG myeloma cells [5]; day 37, subcutaneous infected CAG cells, control 58±11 mg): 648 ± 69 mg
development of tumor xenografts after day 21 vs control cells (CAG myeloma cells [5]; subcutaneous infected CAG cells): markedly enhanced
